Source: US20240092919A1 (Ablynx, published 2024)

T1: Human T cell receptor on human primary T cells (human, UniProt P01848 1-140; P01850 1-176)
T1 TCR alpha (looked up): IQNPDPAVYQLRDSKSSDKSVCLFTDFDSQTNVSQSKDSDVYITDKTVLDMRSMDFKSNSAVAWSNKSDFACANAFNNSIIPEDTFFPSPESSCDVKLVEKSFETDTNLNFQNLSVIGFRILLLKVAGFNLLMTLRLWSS
T1 TCR beta (looked up): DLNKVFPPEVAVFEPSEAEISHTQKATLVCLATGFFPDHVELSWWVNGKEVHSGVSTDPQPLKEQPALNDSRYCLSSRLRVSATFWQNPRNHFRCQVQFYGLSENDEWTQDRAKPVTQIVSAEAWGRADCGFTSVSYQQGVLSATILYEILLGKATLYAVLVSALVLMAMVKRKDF

T2: Cynomolgus TCR(AEA41865/AEA41866)-zipper protein (cynomolgus monkey)
T2 construct: also called cyTCR-zipper protein; cynoTCR zipper
T2 TCR alpha: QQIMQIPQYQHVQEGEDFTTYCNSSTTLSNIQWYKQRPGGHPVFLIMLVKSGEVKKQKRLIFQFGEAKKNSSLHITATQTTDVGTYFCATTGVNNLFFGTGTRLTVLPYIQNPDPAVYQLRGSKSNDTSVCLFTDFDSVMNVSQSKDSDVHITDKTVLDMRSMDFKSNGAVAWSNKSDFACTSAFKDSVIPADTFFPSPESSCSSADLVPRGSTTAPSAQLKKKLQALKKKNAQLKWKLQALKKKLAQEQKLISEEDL
T2 TCR beta: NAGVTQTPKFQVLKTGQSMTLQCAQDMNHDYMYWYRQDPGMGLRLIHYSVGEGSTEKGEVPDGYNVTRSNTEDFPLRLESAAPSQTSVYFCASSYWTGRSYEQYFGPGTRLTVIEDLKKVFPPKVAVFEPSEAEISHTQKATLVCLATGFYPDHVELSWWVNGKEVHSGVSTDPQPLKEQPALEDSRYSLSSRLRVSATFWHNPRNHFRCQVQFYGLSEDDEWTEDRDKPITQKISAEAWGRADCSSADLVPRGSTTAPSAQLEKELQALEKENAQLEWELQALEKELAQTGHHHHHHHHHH

T3: human T cell receptor on human primary T cells (human, UniProt P01848 1-140; P01850 1-176)
T3 construct: whole, on cells
T3 TCR alpha (looked up): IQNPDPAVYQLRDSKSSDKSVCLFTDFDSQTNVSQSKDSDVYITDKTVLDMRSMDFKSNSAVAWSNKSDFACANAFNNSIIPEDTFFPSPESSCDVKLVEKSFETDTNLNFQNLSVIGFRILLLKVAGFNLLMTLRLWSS
T3 TCR beta (looked up): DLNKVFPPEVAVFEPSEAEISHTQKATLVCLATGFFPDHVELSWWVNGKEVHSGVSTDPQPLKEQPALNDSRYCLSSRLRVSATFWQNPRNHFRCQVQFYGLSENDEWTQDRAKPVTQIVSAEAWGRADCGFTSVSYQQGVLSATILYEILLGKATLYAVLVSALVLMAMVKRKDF

T4: Cynomolgus TCR(AEA41865/AEA41866)-zipper protein (cynomolgus monkey)
T4 construct: also called cyTCR-zipper protein; cynoTCR zipper
T4 TCR alpha: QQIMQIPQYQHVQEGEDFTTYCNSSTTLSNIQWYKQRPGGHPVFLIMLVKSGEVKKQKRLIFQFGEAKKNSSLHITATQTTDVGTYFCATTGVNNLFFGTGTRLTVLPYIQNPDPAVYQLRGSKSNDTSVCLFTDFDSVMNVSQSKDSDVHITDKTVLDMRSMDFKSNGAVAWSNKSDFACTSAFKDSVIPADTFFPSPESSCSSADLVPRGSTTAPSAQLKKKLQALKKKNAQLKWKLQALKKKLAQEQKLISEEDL
T4 TCR beta: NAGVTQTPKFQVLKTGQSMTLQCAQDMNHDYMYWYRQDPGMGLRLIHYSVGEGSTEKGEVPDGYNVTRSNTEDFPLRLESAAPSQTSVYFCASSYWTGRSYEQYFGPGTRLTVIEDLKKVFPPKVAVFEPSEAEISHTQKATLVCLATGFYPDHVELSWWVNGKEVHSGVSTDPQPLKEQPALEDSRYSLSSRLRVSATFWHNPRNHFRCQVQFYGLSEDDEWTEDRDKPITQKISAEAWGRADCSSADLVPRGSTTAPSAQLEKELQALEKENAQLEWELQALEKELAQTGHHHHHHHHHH


Columns and labels:
[1] = biological target: T5, Cynomolgus T cell receptor on cynomolgus primary T cells (cynomolgus monkey); assay: cell-based or functional assay
[2] = biological target: T5, Cynomolgus T cell receptor on …; assay: cell-based or functional assay; remark: listed apart in the source
[3] = biological target: T1, Human T cell receptor on human primary …; assay: cell-based or functional assay
[4] = biological target: T2, Cynomolgus …; assay: SPR, ProteOn XPR36, 25 C, immobilised TCR-zipper
Description: HuTCR-zipper or cyTCR-zipper protein was immobilized on a GLC sensor chip (between 100-200 RU) via amine coupling chemistry, using EDC/NHS for activation of the carboxyl groups on the chip surface (running buffer: HBS-EP+, pH7.4). […] Processed sensorgrams were fitted with the Langmuir model (1:1 interaction) using ProteOn Manager 3.1.0 (Version 3.1.0.6) software.

[5] = biological target: T5, Cynomolgus T cell receptor on …; assay: cell-based or functional assay; remark: listed apart in the source
[6] = biological target: T1, Human T cell receptor on human primary …; assay: cell-based or functional assay
[7] = biological target: T5, Cynomolgus T cell receptor on …; assay: cell-based or functional assay; remark: listed apart in the source
[8] = biological target: T1, Human T cell receptor on human primary …; assay: cell-based or functional assay
[9] = biological target: T1, Human T cell receptor on human primary …; assay: cell-based or functional assay
[10] = biological target: T3, human T cell receptor on human primary …; assay: flow cytometry, human primary T cells
Protocol: Dose-dependent binding of the purified monovalent ISVD variants to CHO-K1 huTCR(2XN9)/huCD3 overexpressing cells or human primary T cells was evaluated by flow cytometry. […] Next, cells were washed 3 times with FACS buffer and incubated with 1 μg/ml THE™ His Tag Antibody, mAb, Mouse (Genscript, A00186) and washed again. […] Subsequently, cells were resuspended in FACS buffer supplemented with 5 nM TO-PRO®-3 Iodide to distinguish live from dead cells, which are removed during the gating procedure. Cells were analyzed using a FACS Array flow cytometer (BD Biosciences) and Flowing Software. First a P1 population which represented more than 80% of the total cell population was selected based on FSC-SSC distribution. In this gate, 10000 cells were counted during acquisition. From this population the TO-PRO®-3+ cells (dead cells) were excluded and the mean fluorescence intensity (MFI) PE value was calculated.

[11] = biological target: T2, Cynomolgus …; assay: higher koff divided by lower koff, humanTCR zipper vs cynoTCR zipper (SPR)
[12] = biological target: T1, Human T cell receptor on human primary …; assay: flow cytometry, human primary T cells
Protocol: The ISVD variants were characterized for binding to CHO-K1 huTCR(2XN9)/huCD3 or to human and cynomolgus primary T cells. […] Next, cells were washed 3 times with FACS buffer and incubated with 1 μg/ml ANTI-FLAG® M2 Ab (Sigma, F1804) and washed again. […] Subsequently, cells were resuspended in FACS buffer supplemented with 5 nM TO-PRO®-3 Iodide to distinguish live from dead cells, which are removed during the gating procedure. Cells were analyzed using a FACS Array flow cytometer (BD Biosciences) and Flowing Software. First a P1 population which represented more than 80% of the total cell population was selected based on FSC-SSC distribution. In this gate, 10000 cells were counted during acquisition. From this population the TO-PRO®-3+cells (dead cells) were excluded and the mean fluorescence intensity (MFI) PE value was calculated.

[13] = biological target: T4, Cynomolgus …; assay: SPR ProteOn off-rate screen
Description: (§1) Unique ISVD clones, i.e. clones with a unique sequence, were subsequently selected and screened to determine their off-rate. To this purpose, the ISVD containing periplasmic extracts were screened on huTCR-zipper and cyTCR-zipper protein by SPR on a ProteOn XPR36 instrument. The zipper proteins were immobilized on a GLC sensor chip (between 4300 and 5100RU) via amine coupling chemistry, using EDC/sulfo-NHS for activation of the carboxyl groups on the chip surface (running buffer: HBS-EP+, pH7.4). Periplasmic extracts were injected at 1/10 dilution for 2 min (at a flow rate of 45 μL/min) and dissociation was followed for 900 s. A pulse of 100 s of 3 M MgCl2 at 45 μL/min was used for regeneration. […] Processed sensorgrams were fitted with the Langmuir model (1:1 interaction) using ProteOn Manager 3.1.0 (Version 3.1.0.6) software.

[14] = biological target: T4, Cynomolgus …; assay: ratio higher/lower kd on huTCR- and cyTCR-zipper (SPR)
Description: as §1
For % Lysis, T cell mediated MOLM-13 cell killing, cynomolgus primary T cells, E:T 10:1 in this document: test concentration or dose not given here.
For % Lysis, T cell mediated MOLM-13 cell killing, human primary T cells, E:T 10:1 in this document: test concentration or dose not given here.

| Binder | % Lysis, T cell mediated MOLM-13 cell killing, cynomolgus primary T cells, E:T 10:1 [1] [%] | EC50 (M), T cell mediated MOLM-13 cell killing, cynomolgus primary T cells, E:T 10:1 [1] [M] | % lysis, MOLM-13, Cynomolgus T cell mediated killing [2] [%] | % lysis, MOLM-13, Human T cell mediated killing [3] [%] | IC50 (M), xCELLigence CHO Flp-In huCD123 cell killing, Cynomolgus T cell mediated killing [5] [M] | IC50 (M), xCELLigence CHO Flp-In huCD123 cell killing, Human T cell mediated killing [6] [M] | % lysis, KG-1a, Cynomolgus T cell mediated killing [7] [%] | EC50 (M), KG-1a, Cynomolgus T cell mediated killing [7] [M] | % lysis, KG-1a, Human T cell mediated killing [8] [%] | EC50 (M), KG-1a, Human T cell mediated killing [8] [M] | EC50 (M), T cell mediated MOLM-13 cell killing, human primary T cells, E:T 10:1 [9] [M] | Gap in off-rate human vs cyno [11] [fold] | EC50 [12] [nM] | other results |
| --- | --- | --- | --- | --- | --- | --- | --- | --- | --- | --- | --- | --- | --- | --- |
| T017000131 (bispecific antibody, also called A0110056A10(E1D)-35GS-T0170056G05-A) DVQLVESGGGLVQAGGSLRLSCAASGITSKINDMGWYRQTPGNYREWVASITATGTTNYRDSVKGRFTISRDNAKSTVYLQMNSLKPEDTTVYYCNTFPPISNFWGQGTLVTVSSGGGGSGGGGSGGGGSGGGGSGGGGSGGGGSGGGGSEVQLVESGGGLVQPGGSLRLSCVASGDVHKINFLGWYRQAPGKEREKVAHISIGDQTDYADSAKGRFTISRDESKNMVYLQMNSLKPEDTAVYFCRAFSRIYPYDYWGQGTLVTVSSA | 14 | 9e-10 | 14 | 20 | 8.1e-11 | 3.4e-11 | 14 | 1.6e-09 | 29 | 2.4e-09 | 1.3e-09 |  |  | EC50 (M), MOLM-13, Cynomolgus T cell mediated killing [2]: 8.9e-10 M; Kd [4]: 1600 nM; % Lysis, T cell mediated MOLM-13 cell killing, human primary T cells, E:T 10:1 [9]: 20% |
| T017000634 (bispecific antibody, also called A0110056A10(E1D)-35GS-T0170056G05(L11V, D27Y, L34Y, M77T, K83R, V89L, F91Y, F95L, Y99W)-A) DVQLVESGGGLVQAGGSLRLSCAASGITSKINDMGWYRQTPGNYREWVASITATGTTNYRDSVKGRFTISRDNAKSTVYLQMNSLKPEDTTVYYCNTFPPISNFWGQGTLVTVSSGGGGSGGGGSGGGGSGGGGSGGGGSGGGGSGGGGSEVQLVESGGGVVQPGGSLRLSCVASGYVHKINFYGWYRQAPGKEREKVAHISIGDQTDYADSAKGRFTISRDESKNTVYLQMNSLRPEDTALYYCRALSRIWPYDYWGQGTLVTVSSA | 32 | 1.2e-10 | 33 | 22 | 1.9e-11 | 1.1e-11 | 41 | 2.7e-10 | 49 | 4.4e-10 | 1.4e-10 |  |  | EC50 (M), MOLM-13, Cynomolgus T cell mediated killing [2]: 2.1e-10 M; EC50 (M), MOLM-13, Human T cell mediated killing [3]: 2.5e-10 M; Kd [4]: 200 nM |
| T017000351 (VHH, not shown: small tags and cut ends, also called T0170000351) VHH: EVQLVESGGGVVQPGGSLRLSCVASGDVHKINFLGWYRQAPGKEREKVAHISIGDQTDYADSAKGRFTISRDESKNMVYLQMNSLRPEDTALYFCRAFSRIYPYDYWGQGTLVTVSS |  |  |  |  |  |  |  |  |  |  |  |  |  | EC50 [10]: 110 nM |
| T017000625 (VHH, not shown: small tags and cut ends) VHH: EVQLVESGGGVVQPGGSLRLSCVASYDVHKINFYGWYRQAPGKEREKVAHISIGDQTDYADSAKGRFTISRDESKNTVYLQMNSLRPEDTALYYCRALSKIWPYDYWGQGTLVTVSS |  |  |  |  |  |  |  |  |  |  |  | 1 | 230 |  |
| T017000691 (VHH, not shown: small tags and cut ends) VHH: EVQLVESGGGVVQPGGSLRLSCVASWEVHQINFYGWYRQAPGKEREKVAHISIGDQTDYADSAKGRFTISRDESKNTVYLQMNSLRPEDTALYYCRALSRIWPYDYWGQGTLVTVSS |  |  |  |  |  |  |  |  |  |  |  | > 61.1 | 150 |  |
| T017000613 (VHH) VHH: EVQLVESGGGVVQPGGSLRLSCVASWDVHKINFYGWYRQAPGKEREKVAHISIGDQTDYADSAKGRFTISRDESKNMVYLQMNSLRPEDTALYFCRALSKIWPYDYWGQGTLVTVSS |  |  |  |  |  |  |  |  |  |  |  |  |  | koff [13]: 0.000364 s⁻¹; gap in off-rate human vs cyno [14]: 1 fold |
| T017000623 (VHH, not shown: small tags and cut ends) VHH: EVQLVESGGGVVQPGGSLRLSCVASWDVHKINFYGWYRQAPGKEREKVAHISIGDQTDYADSAKGRFTISRDESKNTVYLQMNSLRPEDTALYYCRALSKIWPYDYWGQGTLVTVSS |  |  |  |  |  |  |  |  |  |  |  | 1 | 280 |  |
| T017000615 (VHH) VHH: EVQLVESGGGVVQPGGSLRLSCVASYDVHKINFYGWYRQAPGKEREKVAHISIGDQTDYADSAKGRFTISRDESKNMVYLQMNSLRPEDTALYFCRALSKIWPYDYWGQGTLVTVSS |  |  |  |  |  |  |  |  |  |  |  |  |  | koff [13]: 0.00087 s⁻¹; gap in off-rate human vs cyno [14]: 1.1 fold |
| T017000635 (VHH, not shown: small tags and cut ends) VHH: EVQLVESGGGVVQPGGSLRLSCVASWDVHQINFYGWYRQAPGKEREKVAHISIGDQTDYADSAKGRFTISRDESKNTVYLQMNSLRPEDTALYYCRALSRIWPYDYWGQGTLVTVSS |  |  |  |  |  |  |  |  |  |  |  | > 55.9 | 70 |  |
| T017000641 (VHH, not shown: small tags and cut ends) VHH: EVQLVESGGGVVQPGGSLRLSCVASWDVHKINFYTWYRQAPGKEREKVAHISIGDQTDYADSAKGRFTISRDESKNTVYLQMNSLRPEDTALYYCRALSKIWPYDYWGQGTLVTVSS |  |  |  |  |  |  |  |  |  |  |  | 1.1 | 270 |  |
| T017000128 (bispecific antibody) DVQLVESGGGLVQPGGSLRLSCVASGDVHKINFLGWYRQAPGKEREKVAHISIGDQTDYADSAKGRFTISRDESKNMVYLQMNSLKPEDTAVYFCRAFSRIYPYDYWGQGTLVTVSSGGGGSGGGGSGGGGSGGGGSGGGGSGGGGSGGGGSEVQLVESGGGLVQAGGSLRLSCAASGITSKINDMGWYRQTPGNYREWVASITATGTTNYRDSVKGRFTISRDNAKSTVYLQMNSLKPEDTTVYYCNTFPPISNFWGQGTLVTVSSA | 37 | 1.7e-10 | 37 | 24 | 1.9e-11 | 1.4e-11 | 61 | 6.7e-10 | 51 | 1.3e-09 | 2.3e-10 |  |  | EC50 (M), MOLM-13, Cynomolgus T cell mediated killing [2]: 4.1e-10 M; EC50 (M), MOLM-13, Human T cell mediated killing [3]: 3e-10 M; % Lysis, T cell mediated MOLM-13 cell killing, human primary T cells, E:T 10:1 [9]: 32% |
| T017000633 (bispecific antibody) DVQLVESGGGVVQPGGSLRLSCVASGYVHKINFYGWYRQAPGKEREKVAHISIGDQTDYADSAKGRFTISRDESKNTVYLQMNSLRPEDTALYYCRALSRIWPYDYWGQGTLVTVSSGGGGSGGGGSGGGGSGGGGSGGGGSGGGGSGGGGSEVQLVESGGGLVQAGGSLRLSCAASGITSKINDMGWYRQTPGNYREWVASITATGTTNYRDSVKGRFTISRDNAKSTVYLQMNSLKPEDTTVYYCNTFPPISNFWGQGTLVTVSSA | 35 | 5.2e-11 | 44 | 26 | 5.1e-12 | 9.1e-12 | 64 | 3.4e-10 | 56 | 6.8e-10 | 1.2e-10 |  |  | EC50 (M), MOLM-13, Human T cell mediated killing [3]: 1.8e-10 M; Kd [4]: 17 nM; % Lysis, T cell mediated MOLM-13 cell killing, human primary T cells, E:T 10:1 [9]: 31% |
